19 sequences from the DeepSol protein solubility set can be followed below.

The nature of this data set: soluble on expression in E. coli; label from the status in PepcDB or PDB records.
For the sequence “GMAKIEKNAPTMEKKPELFNIMEVDGVPTLILSKEWWEKVANFQAKPDDLILATYPKSGTTWMHEILDMILNDGDVEKCKRAQTLDRHAFLELKFPHKEKPDLEFVLEMSSPQLIKTHLPSHLIPPSIWKENCKIVYVARNPKDCLVSYYHFHRMASFMPDPQNLEEFYEKFMSGKVVGGSWFDHVKGWWAAKDMHRILYLFYEDIKKDPKREIEKILKFLEKDISEEILNKIIYHTSFDVMKQNPMTNYTTLPTSIMDHSISPFMRKGMPGDWKNYFTVAQNEEFDKDYQKKMAGSTLTFRTEI”, the “soluble on expression in E. coli” value is given as “soluble”. Turning to “GHGHMHGRLKVKTSEEQAEAKRLEREQKLKLYQSATQAVFQKRQAGELDESVLELTSQILGANPDFATLWNCRREVLQHLETEKSPEESAALVKAELGFLESCLRVNPKSYGTWHHRCWLLSRLPEPNWARELELCARFLEADERNFHCWDYRRFVAAQAAVAPAEELAFTDSLITRNFSNYSSWHYRSCLLPQLHPQPDSGPQGRLPENVLLKELELVQNAFFTDPNDQSAWFYHRWLLGAGSGRCELSVEKSTVLQSELESCKELQELEPENKWCLLTIILLMRALDPLLYEKETLQYFSTLKAVDPMRAAYLDDLRSKFLLENSVLKMEYA”, the “soluble on expression in E. coli” value was “soluble”. “AAVIEKRATCSNGKTVGDASCCAWFDVLDDIQQNLFHGGQCGAEAHESIRLVFHDSIAISPAMEAQGKFGGGGADGSIMIFDDIETAFHPNIGLDEIVKLQKPFVQKHGVTPGDFIAFAGAVALSNCPGAPQMNFFTGRAPATQPAPDGLVPEPFHTVDQIINRVNDAGEFDELELVFMLSAHSVAAVNDVDPTVQGLPFDSTPGIFDSQFFVETQLRGTAFPGSGGNQGEVESPLPGEIRIQSDHTIARDSRTACEWQSFVNNQSKLVDDFQFIFLALTQLGQDPNAMTDCSDVIPQSKPIPGNLPFSFFPAGKTIKDVEQACAETPFPTLTTLPGPETSVQRIPPPPGA”: the “soluble on expression in E. coli” value was “soluble”. Then “MHHHHHHVSLDKAVIARLRKGGEEFEVLVDPYLARDLKEGKEVNFEDLLAAEEVFKDAKKGERASVDELRKIFGTDDVFEIARKIILEGEVQITAEQRREMLEAKRKQIINFISRNTIDPRTNAPHPPSRIERALEEAKVHIDIFKSVEAQVKDIVKALKPILPLKFEEMEIAIKIPPEHTGRAISALYNFGGVTREEWQRDGSWICVMRIPSGMYGDLMDLLGKVAKGEALTKVLRRIG”, with “soluble”; and “MGSDKIHHHHHHMPFQQGLLATPVPAHARHLFFTLQSPEALPAALDALLPQVDGKQLLLGVGAPLAKALGREIPGLRPFPLLDAAVENPSTQHALWLWLRGDERGDLLLRTQALEQALAPALSLADSVDGFLHRGGHDLTGYEDGTENPTDEEAVQAAIAADGSSFAAFQLWKHDLQYFKSLPQADQDNIIGRRLSDNEELDDAPASAHVKRTAQESFEPEAFMVRRSVSWADQRGAGLAFVALGKSFEAFEVQLRRMSGLEDGIIDGLYRFSRPLTGGYYWCPPMSETGVDLSPLLRA”, with “not soluble”. Turning to “MAHHHHHHMCSVPISCSSTHTHTPHSLIVMSAPKKVALVTGANRGIGFATARRLGELGFKVLLGARDAKRGEEAVDTLRNDKLDVDLLLMTPTEHTSVEAAVQKVEADYKRLDVLINNAALMDFDNKVFPLNIQRMRDEFEINFFATVDITNSFLPLMLRSSEAPRLVFVSTPLGTHETVDRPQNKYAHPNLTAYKCTKSAVNMYAHNLAKYLENYAEEAGGSAASAKVNCCYPGYVQTDMCFNSTEAHFTPYEGAETSVWLATLPADGPTGGFYHRAQKLPW”, the “soluble on expression in E. coli” value is “soluble”. Then “MVVIANAHNELIHDAVLDYYGKRLATCSSDKTIKIFEVEGETHKLIDTLTGHEGPVWRVDWAHPKFGTILASCSYDGKVLIWKEENGRWSQIAVHAVHSASVNSVQWAPHEYGPLLLVASSDGKVSVVEFKENGTTSPIIIDAHAIGVNSASWAPATIEEDGEHNGTKESRKFVTGGADNLVKIWKYNSDAQTYVLESTLEGHSDWVRDVAWSPTVLLRSYLASVSQDRTCIIWTQDNEQGPWKKTLLKEEKFPDVLWRASWSLSGNVLALSGGDNKVTLWKENLEGKWEPAGEVHQGGGGSGGGGATSKEFDGPCQNEIDLLFSECNDEIDNAKLIMKERRFTASYTFAKFSTGSMLLTKDIVGKSGVSIKRLPTELQRKFLFDDVYLDKEIEKVTIEARKSNPYPQISESSLLFKDALDYMEKTSSDYNLWKLSSILFDPVSYPYKTDNDQVKMALLKKERHCRLTSWIVSQIGPEIEEKIRNSSNEIEQIFLYLLLNDVVRASKLAIESKNGHLSVLISYLGSNDPRIRDLAELQLQKWSTGGCSIDKNISKIYKLLSGSPFEGLFSLKELESEFSWLCLLNLTLCYGQIDEYSLESLVQSHLDKFSLPYDDPIGVIFQLYAANENTEKLYKEVRQRTNALDVQFCWYLIQTLRFNGTRVFSKETSDEATFAFAAQLEFAQLHGHSLFVSCFLNDDKAAEDTIKRLVMREITLLRASTNDHILNRLKIPSQLIFNAQALKDRYEGNYLSE”, with “soluble”; and “LRFQMNTRQFVSCWRSHKDELIATYFDASTDSQVGKAISDLGLNAGQTASLRTVIDGVLTDAFYSLLLGLDGAASIGPVQQPYEIRAEDGSVIRDIEPEAWAQFHDRSA”, with “not soluble”. The result for “MGSDKIHHHHHHMKVKIGDLTKIKTGKLDANVSSEDGKYPFFTCSKEPLKISTYSYDCECVLVAGNGDLNVKYYNGKFDAYQRTYIIEANGSGKLYMPYLYYFMEDYIDELRKQAIGGVIKYIKLANLTDALIELPSVDEQKSIVEILKKVKGILDKRNDEIRELDNLIKARFVEMFGDPRSNPFGFEKKRLKDTCKVITGNTPSRAIEEYYGDYIEWIKTDNIVSGILNPTQATESLSEKGMNVGRTVEKDSILMACIAGSIASIGRVCITDRTVAFNQQINAVVPEQYNILFLYVLFQMSKDYLVEDINMALKGILSKSKLEEKEFIIPPMDLQEQFSDFVKQVDKSKFDTMTFAPIYAIINLYLHTYFYQGRR” reads “not soluble”; that for “MGSDKIHHHHHHMSYLTEKLREEKVFKDPVHGYVHVSDKIIWDLIATKEFQRLRRIHQLGTTSLTFHGAEHSRFNHSLGVYEIVRQIIDVTFANEPQLDPEERMVALCAALLHDLGHGPFSHAFEKVFGTDHESYTQEIIIGDTEVNKILMRAGEEFPLKVAAIIKKNYPNQTLVKLISSQIDADRMDYLLRDAYYTGVSYGKFDLERILRVLRPSPDGNGVIVKYSGMHAVEDYIMSRYQMYQQVYFHPVSRSGEVLLWKILERAKKLYCAGYEFQATPIQVLPFFLNEVSLKDYIVLDDIVLMYYFSIWQEEEDPILSDLCSRFLNRRLLRYINYDPKEDAELYAELKGLLEKADIDPSYYLVIDSSSDLPYDYYLPGVGSGKDPIKLLMGNGELRELSTESPVVEAIGRERRTDIKLYYPLDFIESGHVEEAITERMIALIHAHSLKEK”, “not soluble”. For the sequence “MESAKSIIGGHQNVILMRHGDRLDNFEPLWTSTAARPWDPPLAQDGKDRAFRTGQRIRSQLGVPIHRVFVSPFLRCIQTASEVVAALSAVDFDPIAMSSKDVLSIDNTKIKVAIEFGLSEIPHPIFIKSEVAPKDGKFDFKISDLEAMFPEGTVDSNVDMVYKEVPEWGESAQAFEDRYYKTVKILAEKYPSENLLLVTHWGAVSVAFYNYFKDATKYVVDYCGSVEMRRQILNGDGFGKFEVVTSHGVSYKYTKIPVHDHVVVSRQSPL”, the “soluble on expression in E. coli” value was “soluble”. Then “MASWSHPQFEKGALEDPRSLYDLPPYGDATLLYFSDLHGQAFPHYFMEPPNLIAPKPLMGRPGYLTGEAILRYYGVERGTPLAYLLSYVDFVELARTFGPIGGMGALTALIRDQKARVEAEGGKALVLDGGDTWTNSGLSLLTRGEAVVRWQNLVGVDHMVSHWEWTLGRERVEELLGLFRGEFLSYNIVDDLFGDPLFPAYRIHRVGPYALAVVGASYPYVKVSHPESFTEGLSFALDERRLQEAVDKARAEGANAVVLLSHNGMQLDAALAERIRGIDLILSGHTHDLTPRPWRVGKTWIVAGSAAGKALMRVDLKLWKGGIANLRVRVLPVLAEHLPKAEDVEAFLKAQLAPHQDHLFTPLAVSETLLYKRDTLYSTWDQLVGEAVKAIYPEVEVVFSPAVRWGTTILPGQAITWDHLYAYTGFTYPELYLFYLRGAQIKAVLEDIASNVFTSDPFYQQGGDVSRVFGLRYVLDPDAPTGERVREVEVGGRPLDPNRRYLAAAYGGRLQRVGEAKPGYEPRPIYEVLAEYLRSVGRVRVRPEPNVKVIGRNYRLPEVTG”, with “soluble”; and “MAHHHHHHMEEEKAGSSELVLAQESAWDKFGSKLKDMPFLNNFFENPILGKLFGETELAAALREMKMYDQNFKLSELMYLFEFVISKHIVESYLIGDEETLRVHCGQSAFNSLNASINERKKKKVYLDTNVLIYKNHELKGAQRMEESSPWFIFTFHTQQINCLKNANDEIIEGNIDDIREVVYTIALSKHPEPEREGLLYPYIVREFAIIGNTPSW”, with “soluble”. With “MDSPRVERFRAQVTDTFVPNLTWAMAPVTATINLFQDFQSYQRLAQQNRELRSELRRMQAWKEAALQLEQENARLLDLNNVRLDPRLTYITGVVLADSGSPFRQSVLINVGSRDGLVDGWATMDGIGLVGRISGVADKTARVILLTDASSRIPAIIQPSGQRVIVSGDNSAAPFIDFLEDSDLVKPGHRVISSGDGGVFPAGLLIGQVAADPTGKLRVIMAADYQRLEFLRVLRHHGTTTVSDSAQIIGPQLPVAEATQLEHHHHHH”, the “soluble on expression in E. coli” value is recorded as “not soluble”. Then “MKFDDSKPIYKQIVHYIHTEIVTGTYEAGDKLLSVRELATKLEVNPTTIQRAYAELEEAGIIFTVRGTGKYLTEDKRRIEQLENHIAKQLTENFISEMSKLGINKEKIIAWVKKVEEVEVNASGK”, with “not soluble”.

As to “MSLETDDQYYRAIKKIKEAAEASNRAYLTSSKLADMLGISQQSASRIIIDLEKNGYITRTVTKRGQILNITEKGLDVLYTEFADLSRILAIKNNVVITGTVTSGMGEGRYYVARKQYIIQFQEKLGIIPYLGTLNIKVDQASLPELRKIRGFRGIHIEGFKTEDRTFGSVKAFPAKIQNIPCFVIMPERTVYTDVIEIISDKYLREEINLHDGDRVSVEVYTEGHHHHHH”, the “soluble on expression in E. coli” value is on record as “soluble”. Then “MQIGAKIRQLRIANQMTQEELADRAELSKGFISQIENDLTSPSINTLVDILQCLGTDLKTFFSDSEDKQIVFREKDYFSKTDNELKNTIEWVVPNSQKNAMEPIRMTLQPGGRSLEDHPHEGEEFGYVVKGSIEVHIGNECYRVNEGESFYFESTRKHYIVNVGESDAQVIWVSTPPTF”, with “not soluble”; and “MDMNFFKHDAFSATTMMKAIENYEFQPGLISSLNLFEEVETSTTVVGIERRDNTLSLIQTSERGAPLVEGDRDGRNLRFFKTTRIAKSDTVKSEEIQNRREFGTEDQLETAMKYIARKQKKLISEIELTWENMQLGAVQGVVLDADGSVIVDWYKEWEIAPPKPIDFKLNNETTNVADHVDQVIMKMIEASKGAFSDRSRIIGLCGNEFFSKLKNHKTIRETYLNTALAQTLNSAGGVATPSAIGSGSFGSFDFAGVTFINYRSIHNYNVSAKAGTKRAIGIKPDECQFLPANAPGVFQKTFAPGESLDFANTVGKPLYTMLIVDNDRNAWVKPEVYSYPLYICTRPEMLFKAVSGGK”, with “not soluble”. The result for “MSLEVTTPGKLFIAGEYAVVEPGHPAIIVAVDQFVTVTVEETTDEGSIQSAQYSSLPIRWTRRNGELVLDIRENPFHYVLAAIHLTEKYAQEQNKELSFYHLKVTSELDSSNGRKYGLGSSGAVTVGTVKALNIFYDLGLENEEIFKLSALAHLAVQGNGSCGDIAASCYGGWIAFSTFDHDWVNQKVATETLTDLLAMDWPELMIFPLKVPKQLRLLIGWTGSPASTSDLVDRVHQSKEEKQAAYEQFLMKSRLCVETMINGFNTGKISVIQKQITKNRQLLAELSSLTGVVIETEALKNLCDLAESYTGAAKSSGAGGGDCGIVIFRQKSGILPLMTAWEKDGITPLPLHVYTYGQKECKEKHEGHHHHHH” reads “soluble”.
